{
  "source": "paper PMC5794803",
  "about": "“IGFBPL1 Regulates Axon Growth through IGF-1-mediated Signaling Cascades” (Scientific Reports, 2018)",
  "binders": {"B1": {"name": "recombinant mouse IGFBPL1 (insulin-like growth factor binding protein-like 1) (natural protein, UniProt Q80W15 18-270, looked up)", "chain": "LGLRDAGRRHPECSPCQQDRCPAPSPCPAPWISARDECGCCARCLGAEGASCGGPVGSRCGPGLVCASRASGTAPEGTGLCVCAQRGAVCGSDGRSYSSICALRLRARHAPRAHHGHLHKARDGPCEFAPVVLMPPRDIHNVTGTQVFLSCEVKAVPTPVITWKKVKHSPEGTEGLEELPGDHVNIAVQVRGGPSDHETTSWILINPLRKEDEGVYHCHAANAIGEAQSHGTVTVLDLNRYKSLYSSVPGDLL"}},
  "biological_target": "recombinant mouse IGF-1 (insulin-like growth factor 1) (mouse, UniProt P05017 49-118)",
  "sequence (P05017 49-118)": "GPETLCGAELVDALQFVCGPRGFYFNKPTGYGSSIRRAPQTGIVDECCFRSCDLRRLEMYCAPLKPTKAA",
  "assay": "cell-based or functional assay",
  "data": [
    {"binder": "B1", "values": [
      {"measurement": "PI3K phosphorylation (Western blot) in P10 RGCs after co-administration of IGF-1 and IGFBPL1, compared to the control group", "value": 6, "unit": "fold"},
      {"measurement": "mTOR phosphorylation (Western blot) in P10 RGCs after co-administration of IGF-1 and IGFBPL1, compared to the control group", "value": 3, "unit": "fold"}
    ]}
  ]
}
